Our source for the activity (fold tau protein reduction) and activity (% human tau mRNA repression) values is patent publication US12318427.

What all share (test): cell_activity
For data set [1], the system named is ZFP-TF SBS 57930 (artificial). Conditions: AAV6 SYN1, human iPSC-derived neurons, 32 days, ELISA. (In general: In an ELISA, binding on a coated surface is turned into a signal by an enzyme label.)
Data set [2] deals with ZFP-TF SBS 65918 R(-5)Q in F1 and F5 (Qm5 phosphate contact mutants) (artificial). Conditions: AAV6 SYN1, human iPSC-derived neurons, 32 days, ELISA; combined with 57890 >10-fold.
In data set [3] the test system is ZFP-TF SBS 57890 (artificial). Conditions: AAV9 hSYN1 in humanized tau mice, 6 wk; mouse tau ~81%; human iPSC neurons tau protein reduced 2-fold (p208).

As for “CGGCAGAAGGTGGGCGGTGGCGGCGGCG (double strand) [MAPT target site of 57930/65918]”, the figures for the activity (fold tau protein reduction) in data set [1] and in data set [2] were > 5 and > 2, respectively.
Sequence “TGGTGCTGGAGCTGGTGGGTGGCGGAGA (double strand) [MAPT target site of 57890]” showed an activity (% human tau mRNA repression) in data set [3] of 60.
